This note sets out measurements from publication PMC7293217, “TECPR1 promotes aggrephagy by direct recruitment of LC3C autophagosomes to lysosomes” (Nature Communications, 2020).

In this experiment the target is T1, TECPR1 (purified, on GUVs) (human, UniProt Q7Z6L1 1-1165).
T1 construct: TECPR1, human, full-length cDNA of isoform 1, cloned into pCoofy29; TECPR1 could be labeled on native cysteines (Alexa Fluor 488 or CF405M); also called recombinant TECPR1; source: High Five insect cells, purified (Ni-NTA, PreScission, Superdex 200); not shown: His6, N-terminal, cleaved; MBP, N-terminal, cleaved
T1 sequence (looked up): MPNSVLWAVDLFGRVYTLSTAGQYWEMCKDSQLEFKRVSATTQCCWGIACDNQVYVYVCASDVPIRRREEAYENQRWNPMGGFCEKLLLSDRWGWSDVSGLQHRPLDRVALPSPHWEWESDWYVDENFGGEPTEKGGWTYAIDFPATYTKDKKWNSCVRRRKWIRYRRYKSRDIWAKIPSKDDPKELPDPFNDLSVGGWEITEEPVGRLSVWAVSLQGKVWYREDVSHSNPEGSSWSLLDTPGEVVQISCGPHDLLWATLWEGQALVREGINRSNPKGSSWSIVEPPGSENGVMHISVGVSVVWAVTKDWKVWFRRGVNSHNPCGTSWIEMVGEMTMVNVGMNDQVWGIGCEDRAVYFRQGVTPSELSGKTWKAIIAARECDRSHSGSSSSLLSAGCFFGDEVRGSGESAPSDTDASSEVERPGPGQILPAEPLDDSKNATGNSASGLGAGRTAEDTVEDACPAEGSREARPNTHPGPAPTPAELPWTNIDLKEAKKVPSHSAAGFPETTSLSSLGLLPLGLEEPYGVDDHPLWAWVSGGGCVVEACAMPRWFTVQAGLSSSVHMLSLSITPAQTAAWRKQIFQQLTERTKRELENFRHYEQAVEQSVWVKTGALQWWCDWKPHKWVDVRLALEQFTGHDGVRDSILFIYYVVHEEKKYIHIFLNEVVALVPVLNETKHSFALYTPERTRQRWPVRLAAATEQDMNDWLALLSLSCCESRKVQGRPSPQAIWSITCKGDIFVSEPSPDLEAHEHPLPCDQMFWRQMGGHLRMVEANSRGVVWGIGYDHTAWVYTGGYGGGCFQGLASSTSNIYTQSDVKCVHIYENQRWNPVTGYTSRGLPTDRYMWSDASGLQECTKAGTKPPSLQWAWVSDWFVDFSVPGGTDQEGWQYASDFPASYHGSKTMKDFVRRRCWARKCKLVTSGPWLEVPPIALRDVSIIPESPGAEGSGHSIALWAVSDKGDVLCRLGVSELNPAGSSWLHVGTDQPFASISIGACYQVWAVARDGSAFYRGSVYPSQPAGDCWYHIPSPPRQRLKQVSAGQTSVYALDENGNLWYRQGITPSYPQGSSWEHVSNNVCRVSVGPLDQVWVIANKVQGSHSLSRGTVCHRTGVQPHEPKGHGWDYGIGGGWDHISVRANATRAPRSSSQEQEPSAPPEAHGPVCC
Briefly: recruitment of SUVs to GUVs seen by fluorescence microscopy; reconstitution with purified proteins: Alexa488-LC3C conjugated to SUVs coincubated with GUVs decorated with TECPR1; GUVs without TECPR1 as control. The settings on record: both partners purified.

B1: Alexa488-labeled LC3C conjugated to SUVs (natural protein, human, UniProt Q9BXW4 1-126, looked up)
chain: MPPPQKIPSVRPFKQRKSLAIRQEEVAGIRAKFPNKIPVVVERYPRETFLPPLDKTKFLVPQELTMTQFLSIIRSRMVLRATEAFYLLVNNKSLVSMSATMAEIYRDYKDEDGFVYMTYASQETFG
modifications: Alexa Fluor 488 C5 maleimide on the introduced N-terminal cysteine; conjugated to SUVs
For B1, the binding result is “binds”.
